Data published in patent publication US20070117770, “Human ribosomal DNA (rDNA) and ribosomal RNA (rRNA) nucleic acids and uses thereof” (Cylene Pharmaceuticals, Inc., published 2007).

How the values were obtained:
[1] = biological target: T1, Nucleolin (MBP fusion, lacking N-terminal acidic stretches domain) (Homo sapiens, UniProt P19338 P19338:284-710); experiment: EMSA; random single-stranded control; conditions: label: 32P, no quadruplex
Procedure: (§1) In the assays, recombinant nucleolin (˜250 nM), which was fused to maltose binding protein and had the sequence under accession number NM_{—}005381 without the N-terminal acidic stretches domain, was incubated with each of the two ³²P-labeled nucleic acid ligands (10 or 250 nM). Nucleolin and the nucleic acid ligand were incubated in the presence or absence of a test compound of Formula A-1, B-1, C-6 or C-7 in an incubation buffer (12.5 mM Tris, pH 7.6, 60 mM KCl, 1 mM MgCl₂, 0.1 mM EDTA, 1 mM DTT, 5% glycerol, 0.1 mg/ml BSA) for 30 minutes at room temperature. Structures for A-1 and B-1 are shown above and structures for C-6 and C-7 are shown hereafter: The resulting complexes were separated on a 6% DNA retardation gel using 0.5× TBE with 20 mM KCl as a running buffer (i.e., electrophoresis mobility shift assay (EMSA)).
The assay also was conducted using nucleic acid ligands derived from human ribosomal DNA. Sequences of these nucleic acids are shown in the preceding example. It was determined from these assays that compound A-1, but not Actinomycin D, interfered with nucleolin/nucleic acid ligand interactions. […] A “+” represents the weakest nucleolin affinity and least interference by compound A-1 and a “++++” represents the strongest nucleolin affinity and greatest interference by compound A-1.

[2] = biological target: T1, Nucleolin (MBP fusion, lacking …); experiment: filter; Bmax 100%; 62-mer printed here, Example 6 table prints a shorter sequence under the same name; conditions: label: 32P; G4 mixed
Procedure: (§2) The assay also was conducted in a filter-binding format. In such forms of the assay, 0.2 nM of ³²P-labeled quadruplexes were incubated in 50 uL of the binding buffer (12.5 mM Tris-HCl, pH 7.6, 60 mM KCl, 1 mM MgCl2, 0.1 mM EDTA, 5% glycerol, 0.1 mg/mL BSA) for 10 min at 85 C and then for 10 min on ice and mixed with another 50 uL of binding buffer containing increasing amounts of recombinant protein Nucleolin. The protein-quadruplex mixtures were incubated for 30 min at ambient temperature and filtered through mixed cellulose ester membrane filters (Millipore) with gentle suction. The filters were washed twice with […] of binding buffer, dried and OptiPhase ‘SuperMix’ scintillation cocktail (Perkin Elmer) was added to the wells. Radioactivity was assayed with MicroBeta scintillation counter (Perkin Elmer). Binding curves were constructed and apparent Kd's and Bmax's for the complexes were calculated using the GraphPad Prizm software program (GraphPad Software). […]

[3] = biological target: T1, Nucleolin (MBP fusion, lacking …); experiment: filter; Bmax 13%; 60 mM KCl, 1 mM MgCl2; conditions: label: 32P; G4 antiparallel
Procedure: as §2

[4] = biological target: T1, Nucleolin (MBP fusion, lacking …); experiment: filter; Bmax 68%; 60 mM KCl, 1 mM MgCl2; conditions: label: 32P; G4 parallel
Procedure: as §2

[5] = biological target: T1, Nucleolin (MBP fusion, lacking …); experiment: filter; Bmax 60%; 60 mM KCl, 1 mM MgCl2; conditions: label: 32P; G4 mixed
Procedure: as §2

[6] = biological target: T1, Nucleolin (MBP fusion, lacking …); experiment: EMSA; complex disrupted by compounds A-1, B-1, C-6, C-7; 60 mM KCl, 1 mM MgCl2, room temperature; conditions: label: 32P; G4
Procedure: as §1, with “The following assays assessed effects of compounds on interactions between nucleolin and nucleic acid ligands capable of forming quadruplex (QP) and hairpin (HP) secondary structures. Nucleic acid ligands tested were a cMyc QP DNA having nucleotide sequence 5′-[…]-3′ (SEQ ID NO: 176) and a HP pre-rRNA region to which nucleolin binds, having the sequence 5′-[…]-3′ (SEQ ID NO: 177). In” for “In”

[7] = biological target: T1, Nucleolin (MBP fusion, lacking …); experiment: filter; Bmax 51%; 60 mM KCl, 1 mM MgCl2; conditions: label: 32P; G4 parallel
Procedure: as §2

[8] = biological target: T1, Nucleolin (MBP fusion, lacking …); experiment: EMSA; conditions: label: 32P; G4 antiparallel
Procedure: The following assays assessed effects of compounds on interactions between nucleolin and nucleic acid ligands capable of forming quadruplex (QP) and hairpin (HP) secondary structures. Nucleic acid ligands tested were a cMyc QP DNA having nucleotide sequence 5′-[…]-3′ (SEQ ID NO: 176) and a HP pre-rRNA region to which nucleolin binds, having the sequence 5′-[…]-3′ (SEQ ID NO: 177). In the assays, recombinant nucleolin (˜250 nM), which was fused to maltose binding protein and had the sequence under accession number NM_{—}005381 without the N-terminal acidic stretches domain, was incubated with each of the two ³²P-labeled nucleic acid ligands (10 or 250 nM). Nucleolin and the nucleic acid ligand were incubated in the presence or absence of a test compound of Formula A-1, B-1, C-6 or C-7 in an incubation buffer (12.5 mM Tris, pH 7.6, 60 mM KCl, 1 mM MgCl₂, 0.1 mM EDTA, 1 mM DTT, 5% glycerol, 0.1 mg/ml BSA) for 30 minutes at room temperature. […]
The assay also was conducted using nucleic acid ligands derived from human ribosomal DNA. […] It was determined from these assays that compound A-1, but not Actinomycin D, interfered with nucleolin/nucleic acid ligand interactions. […]

T1 sequence (P19338 284-710, one chain of several): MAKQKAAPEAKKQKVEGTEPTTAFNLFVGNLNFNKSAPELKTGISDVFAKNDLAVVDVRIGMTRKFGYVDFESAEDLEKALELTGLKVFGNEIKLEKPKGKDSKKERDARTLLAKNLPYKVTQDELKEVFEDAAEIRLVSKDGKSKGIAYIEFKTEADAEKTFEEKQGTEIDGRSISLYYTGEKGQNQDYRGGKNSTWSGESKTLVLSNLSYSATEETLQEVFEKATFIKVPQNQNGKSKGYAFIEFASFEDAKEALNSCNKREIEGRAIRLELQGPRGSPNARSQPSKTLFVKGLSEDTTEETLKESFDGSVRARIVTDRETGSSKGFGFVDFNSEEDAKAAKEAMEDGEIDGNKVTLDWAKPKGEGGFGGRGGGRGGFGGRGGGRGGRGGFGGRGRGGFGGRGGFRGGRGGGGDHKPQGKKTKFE

B1: RND27 (ssDNA)
DNA: GTCGTAACGTCGATCAGTTTACGACAT
[1]
  binding result: no binding

B2: 8511NT (structured_DNA)
DNA: GGGGGCGGGCTCCGGCGGGTGCGGGGGTGGGCGGGCGGGGCCGGGGGTGGGGTCGGCGGGGG
[2]
  Kd: 0.6 nM

B3: 8749NT (structured_DNA)
DNA: GGGAGGGCGCGCGGGTCGGGG
[3]
  Kd: 1.9 nM

B4: 6960NT (structured_DNA)
DNA: GGGTGGCGGGGGGGAGAGGGGGG
[4]
  Kd: 0.5 nM

B5: 7253NT (structured_DNA)
DNA: GGGTCCGGAAGGGGAAGGGTGCCGGCGGGGAGAGAGGGTCGGGGG
[5]
  Kd: 0.4 nM

B6: cMyc QP DNA (structured_DNA)
DNA: TGGGGAGGGTGGGGAGGGTGGGGAAGG
[6]
  binding result: binds

B7: 6534NT (structured_DNA)
DNA: GGGCGGGGGGGGCGGGGGG
[7]
  Kd: 1.1 nM

B8: 10816NT (structured_DNA)
DNA: GGGCTGGGTCGGTCGGGCTGGGG
[8]
  binding result: no binding
